Measured values reported in patent US20190002588A1 (NATIONAL UNIVERSITY CORPORATION CHIBA UNIVERSITY, published 2019).

T1: human Myl9-His (human, UniProt P24844 2-172, limits assumed)
T1 construct: Made in E. coli; the GST tag was cleaved with PreScission Protease
T1 sequence: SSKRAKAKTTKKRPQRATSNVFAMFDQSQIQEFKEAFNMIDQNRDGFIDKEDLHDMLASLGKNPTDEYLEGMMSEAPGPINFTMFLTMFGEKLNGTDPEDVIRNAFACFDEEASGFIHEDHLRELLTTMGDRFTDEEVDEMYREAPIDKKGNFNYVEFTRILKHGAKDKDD

T2: mouse/human Myl9 peptide-BSA (mouse and human (common sequence), added C-terminal Cys coupled to maleimide-activated BSA)
T2 construct: Synthetic peptide conjugated to bovine serum albumin
T2 peptide: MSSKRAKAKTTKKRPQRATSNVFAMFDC

T3: mouse Myl12b-His (mouse, UniProt Q3THE2 1-172, limits assumed)
T3 construct: Made in E. coli; GST tag cleaved with PreScission Protease; DTT-treated monomer
T3 sequence: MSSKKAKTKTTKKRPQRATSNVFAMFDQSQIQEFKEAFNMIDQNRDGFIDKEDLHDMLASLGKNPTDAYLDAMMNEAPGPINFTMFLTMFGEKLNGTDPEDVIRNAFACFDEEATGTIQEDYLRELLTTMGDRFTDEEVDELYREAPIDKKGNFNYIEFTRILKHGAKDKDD

T4: mouse Myl12a-His (mouse, UniProt Q3THE2 1-172 at identity 1.00), limits assumed)
T4 construct: Made in E. coli; GST tag cleaved with PreScission Protease; DTT-treated monomer
T4 chain: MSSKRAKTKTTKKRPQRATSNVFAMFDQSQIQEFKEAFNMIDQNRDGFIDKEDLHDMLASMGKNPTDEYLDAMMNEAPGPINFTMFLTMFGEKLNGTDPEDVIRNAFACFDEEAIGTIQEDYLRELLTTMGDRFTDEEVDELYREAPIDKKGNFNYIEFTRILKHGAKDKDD

T5: human Myl12b-His (human, UniProt O14950 1-172)
T5 construct: Made in E. coli; GST tag cleaved with PreScission Protease; DTT-treated monomer
T5 sequence: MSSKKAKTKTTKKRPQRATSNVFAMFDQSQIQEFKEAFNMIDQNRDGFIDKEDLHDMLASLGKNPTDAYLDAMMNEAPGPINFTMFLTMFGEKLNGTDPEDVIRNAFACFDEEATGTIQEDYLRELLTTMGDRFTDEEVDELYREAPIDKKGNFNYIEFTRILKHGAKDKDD

T6: mouse Myl9-His (mouse, UniProt Q9CQ19 2-172, limits assumed)
T6 construct: Made in E. coli; the GST tag was cleaved with PreScission Protease and leftover vector residues are not described
T6 sequence: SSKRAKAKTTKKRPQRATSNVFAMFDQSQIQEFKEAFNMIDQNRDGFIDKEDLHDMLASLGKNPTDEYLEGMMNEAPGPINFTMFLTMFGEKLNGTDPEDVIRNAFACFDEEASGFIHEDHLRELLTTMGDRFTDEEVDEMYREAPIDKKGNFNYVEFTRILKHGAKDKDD

T7: human Myl12a-His (human, UniProt P19105 1-171)
T7 construct: Made in E. coli; GST tag cleaved with PreScission Protease; DTT-treated monomer
T7 sequence: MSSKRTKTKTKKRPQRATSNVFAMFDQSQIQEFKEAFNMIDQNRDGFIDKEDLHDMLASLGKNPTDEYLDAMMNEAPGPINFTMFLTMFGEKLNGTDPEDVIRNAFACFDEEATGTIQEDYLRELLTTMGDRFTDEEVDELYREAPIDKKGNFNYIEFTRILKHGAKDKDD


Tests used:
human Myl9-His [1] = target: T1, human Myl9-His; test: ELISA, human Myl9-His coated, anti-mouse IgG-HRP
Method: (§1) The binding ability against mouse/human Myl9 was evaluated following the steps below by ELISA. Mouse Myl3-His, mouse Myl9-His, human Myl3-His, and human Myl9-His were coated onto the wells of a 96-well plate (Nunc). After an overnight incubation at 4° C., the wells were blocked at room temperature for one hour with 1× Block Ace (DS Pharma Biomedical Co., Ltd.). After washing three times with 0.02% Tween 20/PBS, ten serial dilutions by four folds of Antibody A were made from a concentration of 10 μg/mL and added to the wells. After incubation at room temperature for one hour and washing three times, horseradish peroxidase-labeled anti-mouse IgG antibody (Jackson ImmunoResearch Laboratories) was added, and this was incubated at […] temperature for one hour. After washing 5 times, TMBZ (3,3′,5,5′-tetramethylbenzidine) solution was added to the wells, and this was incubated for 5-20 minutes at room temperature. An equal amount of reaction quenching solution (2N H₂SO₄) was added to the wells, and absorbance at 450 nm was read with a microplate reader (PerkinElmer).

[2] = target: T2, mouse/human Myl9 peptide-BSA; test: ELISA, mouse/human Myl9 peptide-BSA coated, hybridoma supernatant
Method: ELISA employing mouse/human Myl9 peptide-BSA was carried out according to the following steps. Mouse/human Myl9 peptide-BSA was coated onto the wells of a 96-well plate (Num). After an overnight incubation at 4° C., the wells were blocked at room temperature for one hour with 1× Block Ace (DS Pharma Biomedical Co., Ltd.). After washing three times with 0.02% Tween 20/PBS, the culture supernatant of said fused cells was added to the wells. After incubation at room temperature for one hour and washing three times, horseradish peroxidase-labeled anti-mouse IgG antibody (Jackson ImmunoResearch Laboratories) was added, and this was incubated at room temperature for one hour. After washing 5 times, TMBZ (3,3′,5,5′-tetramethylbenzidine) solution was added to the wells, and this was incubated for 5-20 minutes at room temperature. An equal amount of reaction quenching solution (2N H₂SO₄) was added to the wells, and absorbance at 450 nm was read with a microplate reader (PerkinElmer).

mouse Myl12b-His = target: T3, mouse Myl12b-His; test: ELISA, mouse Myl12b-His coated, anti-mouse IgG-HRP
Method: (§2) The binding ability of Antibody A against mouse/human Myl12a and Myl12b was evaluated following the steps below by ELISA. Mouse Myl3-His, mouse Myl9-His, mouse Myl12a-His, mouse Myl12b-His, human Myl3-His, human Myl9-His, human Myl12a-His, and human Myl12b-His were coated onto the wells of a 96-well plate (Nunc). After an overnight incubation at 4° C., the wells were blocked at room temperature for one hour with 1× Block Ace (DS Pharma Biomedical Co., Ltd.). After washing three times with 0.02% Tween 20/PBS, eleven serial dilutions by four folds of Antibody A were made from a concentration of 10 μg/mL and added to the wells. After incubation at room temperature for one hour and washing three times, horseradish peroxidase-labeled anti-mouse IgG antibody (Jackson ImmunoResearch Laboratories) was added, and this was incubated at room temperature for one hour. After washing 5 times, TMBZ (3,3′,5,5′-tetramethylbenzidine) solution was added to the wells, and this was incubated for 5-20 minutes at room temperature. An equal amount of reaction quenching solution (2N H₂SO₄) was added to the wells, and absorbance at […] was read with a microplate reader (Thermo Scientific).

human Myl3-His [3] = target: T8, human Myl3-His (human, UniProt P08590 2-195, limits assumed); test: ELISA, human Myl3-His coated, anti-mouse IgG-HRP
T8 construct: Made in E. coli; the GST tag was cleaved with PreScission Protease
T8 sequence (P08590 2-195 limits assumed): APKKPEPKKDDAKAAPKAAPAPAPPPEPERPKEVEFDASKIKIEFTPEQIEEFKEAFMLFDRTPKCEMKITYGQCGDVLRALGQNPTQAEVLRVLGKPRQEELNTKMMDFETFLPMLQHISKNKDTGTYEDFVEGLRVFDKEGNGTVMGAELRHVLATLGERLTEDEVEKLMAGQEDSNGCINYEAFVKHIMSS
Method: as §1

mouse Myl3-His = target: T9, mouse Myl3-His (mouse, UniProt P09542 2-204, limits assumed); test: ELISA, mouse Myl3-His coated, anti-mouse IgG-HRP
T9 construct: Made in E. coli; the GST tag was cleaved with PreScission Protease
T9 sequence (P09542 2-204 limits assumed): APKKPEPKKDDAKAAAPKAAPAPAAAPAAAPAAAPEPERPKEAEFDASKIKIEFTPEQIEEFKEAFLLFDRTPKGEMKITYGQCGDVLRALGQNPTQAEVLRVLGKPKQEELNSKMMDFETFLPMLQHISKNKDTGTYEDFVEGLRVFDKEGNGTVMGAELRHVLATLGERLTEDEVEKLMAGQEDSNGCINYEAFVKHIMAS
Method: as §1

mouse Myl12a-His = target: T4, mouse Myl12a-His; test: ELISA, mouse Myl12a-His coated, anti-mouse IgG-HRP
Method: as §2

human Myl12b-His [4] = target: T5, human Myl12b-His; test: ELISA, human Myl12b-His coated, anti-mouse IgG-HRP
Method: as §2

mouse Myl9-His = target: T6, mouse Myl9-His; test: ELISA, mouse Myl9-His coated, anti-mouse IgG-HRP
Method: as §1

human Myl12a-His [5] = target: T7, human Myl12a-His; test: ELISA, human Myl12a-His coated, anti-mouse IgG-HRP
Method: as §2

human Myl9-His [6] = target: T1, human Myl9-His; test: ELISA, human Myl9-His coated, anti-Flag-HRP
Method: (§3) Evaluation of binding between human Myl9, Myl12a and Myl12b and human CD69 extracellular region protein was carried out by ELISA. Human Myl3-His, human Myl9-His, human Myl12a-His and human Myl12b-His prepared in Example 5 were coated onto the wells of a 96-well plate (Nunc), respectively. After an overnight incubation at 4° C., the wells were blocked at room temperature for one hour with 1× Block Ace (DS Pharma Biomedical Co., Ltd.). After washing three times with 0.02% Tween 20/PBS, six serial dilutions by three folds of 3× Flag-human CD69 EC protein were made from a concentration of 10 μg/mL by 50 mM NaOAc (pH 5.5)/150 mM NaCl/0.02% Tween 20 and added to the wells. After incubation at room temperature for one and half hour and washing three times with 50 mM NaOAc (pH 5.5)/150 mM NaCl/0.02% Tween 20, horseradish peroxidase-labeled anti-Flag (M2) antibody (SIGMA) was added, and this was incubated at room temperature for one hour. After washing 5 times, TMBZ (3,3′,5,5′-tetramethylbenzidine) solution was added to the wells, and this was incubated for 5-20 minutes at room temperature. An equal amount of reaction quenching solution (2N H₂SO₄) was added to the wells, and absorbance at 450 nm was read with a microplate reader (Thermo Scientific).

human Myl3-His [7] = target: T8, human Myl3-His; test: ELISA, human Myl3-His coated, pH 5.5 buffer, anti-Flag-HRP
Method: as §3

human Myl12a-His [8] = target: T7, human Myl12a-His; test: ELISA, human Myl12a-His coated, anti-Flag-HRP
Method: as §3

human Myl12b-His [9] = target: T5, human Myl12b-His; test: ELISA, human Myl12b-His coated, anti-Flag-HRP
Method: as §3

Binder | binding result (human Myl9-His [1]) | binding result [2] | binding result (mouse Myl12b-His) | binding result (human Myl3-His [3]) | binding result (mouse Myl3-His) | binding result (mouse Myl12a-His) | binding result (human Myl12b-His [4]) | binding result (mouse Myl9-His) | binding result (human Myl12a-His [5]) | binding result (human Myl9-His [6]) | binding result (human Myl3-His [7]) | binding result (human Myl12a-His [8]) | binding result (human Myl12b-His [9])
mouse anti-mouse/human Myl9 monoclonal antibody (Antibody A) (antibody, V domains shown, Hybridoma antibody purified with Protein A; isotype printed as 'IgG2e, kappa'; also called mAb A; anti-mouse/human Myl9 antibody) VH: QVQLQQSGAEVVRPGASVTLSCKASGYTFTDYEMHWVKQTPVHGLEWIGAIDPETGGTAYNQKFKGKAILTADKSSNTAYMELRSLTSEDSAVYYCTDYDYDGFAYWGQGTLVTVSA VL: DVVMTQTPLSLPVSLGDQASISCRSSQSLVHSNGNTYLHWYLQKPGRSPKLLISKVSNRFSGVPDRFSGSGSGTDFTLKITRVEAEDLGVYFCSQNTHVPPLTFGAGTKLELK | binds | binds | binds | no binding (tested: 10 µg/mL) | no binding (tested: 10 µg/mL) | binds | binds | binds | binds | – | – | – | –
3× Flag-human CD69 EC protein (receptor, not shown: small tags and cut ends, Made in Expi293F cells and purified on Anti-Flag M2 gel; The dimerized protein was collected by Superdex200 or Superdex75; also called human CD69 extracellular region protein; extracellular region of human CD69) GQYNCPGQYTFSMPSDSHVSSCSEDWVGYQRKCYFISTVKRSWTSAQNACSEHGATLAVIDSEKDMNFLKRYAGREEHWVGLKKEPGHPWKWSNGKEFNNWFNVTGSDKCVFLKNTEVSSMECEKNLYWICNKPYK | – | – | – | – | – | – | – | – | – | binds | no binding (tested: 10 µg/mL) | binds | binds
